Values quoted from earlier work, collected in patent publication US10023622B2, “Method of immunization for reducing toxic damaged caused by oligomeric form of the amyloid-beta protein with stable amyloid beta monomers and oligomers” (ALZINOVA AB, priority 2008, dated 2018).

conditions: oxidized derivatives (cystines)

Fibrillation of oxidized disulphide mutants, all fibrillate:
F19C/A30C: previously published Aβ peptide disulphide mutant (Wetzel et al.)
F19C/L34C: previously published Aβ peptide disulphide mutant (Wetzel et al.)
L17C/M35C: previously published Aβ peptide disulfide mutant (Shivaprasad and Wetzel)
F19C/I32C: previously published Aβ peptide disulphide mutant (Wetzel et al.)
L17C/L34C: previously published Aβ peptide disulfide mutant (Shivaprasad and Wetzel)
V18C/L34C: previously published Aβ peptide disulphide mutant (Wetzel et al.)
